Experimental data: the Immune Epitope Database (IEDB)

Legend:
Assay in all cases: IEDB peptide-MHC binding, purified MHC/competitive/radioactivity; filed as Kd, often an IC50 or EC50 that approximates it; ≥ and ≤ were set here for values at or beyond the usual limits of such assays
HLA-A*31:01 = target: HLA-A*31:01
HLA-A*68:01 = target: HLA-A*68:01
HLA-A*11:01 = target: HLA-A*11:01
HLA-A*03:01 = target: HLA-A*03:01
HLA-A*33:01 = target: HLA-A*33:01
HLA-A*02:03 = target: HLA-A*02:03
HLA-A*02:06 = details: source organism: Dengue virus 3 Martinique/1243/1999
[1] = source organism: Vaccinia virus WR
[2] = source organism: SARS coronavirus Tor2
[3] = source organism: Mammarenavirus lassaense
[4] = source organism: Triticum aestivum
[5] = source organism: Mammarenavirus machupoense
[6] = source organism: Mammarenavirus juninense

RLFRSPQVK
Kd (HLA-A*31:01; [1]): 4960 nM | Kd (HLA-A*68:01; [1]): 3670 nM | Kd (HLA-A*11:01; [1]): 715 nM | Kd (HLA-A*03:01; [1]): 87.2 nM | Kd (HLA-A*33:01; [1]): 15300 nM

GMNDYLGIFK
Kd (HLA-A*31:01; [1]): 390 nM | Kd (HLA-A*68:01; [1]): 572 nM | Kd (HLA-A*11:01; [1]): 4.28 nM | Kd (HLA-A*03:01; [1]): 2.86 nM | Kd (HLA-A*33:01; [1]): 5970 nM

TLNVLAWLY
Kd (HLA-A*31:01; [2]): 2720 nM | Kd (HLA-A*68:01; [2]): 13200 nM | Kd (HLA-A*11:01; [2]): 25 nM | Kd (HLA-A*03:01; [2]): 36.5 nM | Kd (HLA-A*33:01; [2]): 7370 nM

DFAVSKGFFK
Kd (HLA-A*31:01; [2]): 1040 nM | Kd (HLA-A*68:01; [2]): 16.8 nM | Kd (HLA-A*11:01; [2]): 107 nM | Kd (HLA-A*03:01; [2]): 768 nM | Kd (HLA-A*33:01; [2]): 50.1 nM

EVRIPVDLVK
Kd (HLA-A*31:01; [1]): 9020 nM | Kd (HLA-A*68:01; [1]): 656 nM | Kd (HLA-A*11:01; [1]): 1660 nM | Kd (HLA-A*03:01; [1]): ≥ 64800 nM | Kd (HLA-A*33:01; [1]): 17000 nM

LMWNKQFIK
Kd (HLA-A*31:01; [1]): 12.9 nM | Kd (HLA-A*68:01; [1]): 200 nM | Kd (HLA-A*11:01; [1]): 2.57 nM | Kd (HLA-A*03:01; [1]): 6.26 nM | Kd (HLA-A*33:01; [1]): 31.8 nM

GLFTSLGKA
Kd (HLA-A*02:03; source organism: Dengue virus 4 Dominica/814669/1981): 10.8 nM

VVVGDIIGV
Kd (HLA-A*02:06): 4.38 nM

VLFSGVSWT
Kd (HLA-A*02:03; source organism: Dengue virus 1 Brazil/97-11/1997): 60.1 nM

LISLNSMYTR
Kd (HLA-A*31:01; [1]): 1.11 nM | Kd (HLA-A*68:01; [1]): 38.6 nM | Kd (HLA-A*11:01; [1]): 22.8 nM | Kd (HLA-A*03:01; [1]): 1090 nM | Kd (HLA-A*33:01; [1]): 115 nM

TCQGSDDIKK
Kd (HLA-A*31:01; [3]): 6330 nM | Kd (HLA-A*68:01; [3]): 4450 nM | Kd (HLA-A*11:01; [3]): 13000 nM | Kd (HLA-A*03:01; [3]): ≥ 70000 nM | Kd (HLA-A*33:01; [3]): ≥ 24200 nM

NVVHAIILH
Kd (HLA-A*31:01; [4]): 14000 nM | Kd (HLA-A*68:01; [4]): 1490 nM | Kd (HLA-A*11:01; [4]): ≥ 42800 nM | Kd (HLA-A*03:01; [4]): 19500 nM | Kd (HLA-A*33:01; [4]): ≥ 24600 nM

GVIDTMRIY
Kd (HLA-A*31:01; [1]): 991 nM | Kd (HLA-A*68:01; [1]): 3020 nM | Kd (HLA-A*11:01; [1]): 85.7 nM | Kd (HLA-A*03:01; [1]): 1680 nM | Kd (HLA-A*33:01; [1]): 11400 nM

NLKQLPFFYY
Kd (HLA-A*31:01; [2]): ≥ 70000 nM | Kd (HLA-A*68:01; [2]): ≥ 10000 nM | Kd (HLA-A*11:01; [2]): 5350 nM | Kd (HLA-A*03:01; [2]): ≥ 36000 nM | Kd (HLA-A*33:01; [2]): ≥ 70000 nM

EKFGHLCKYH
Kd (HLA-A*31:01; [5]): ≥ 70000 nM | Kd (HLA-A*68:01; [5]): ≥ 70100 nM | Kd (HLA-A*11:01; [5]): ≥ 69700 nM | Kd (HLA-A*03:01; [5]): ≥ 70000 nM | Kd (HLA-A*33:01; [5]): ≥ 70000 nM

SKQYIHCFRK
Kd (HLA-A*31:01; [6]): 898 nM | Kd (HLA-A*68:01; [6]): 2540 nM | Kd (HLA-A*11:01; [6]): 1520 nM | Kd (HLA-A*03:01; [6]): 4500 nM | Kd (HLA-A*33:01; [6]): ≥ 26100 nM
